Assay: yeast display, Sf9 membrane polyspecificity reagent, FACS + sequencing; frameworks hold sequencing errors
In short: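 A synthetic nanobody library was expressed on Saccharomyces cerevisiae BJ5465 by galactose induction for 36–48 hours. The library was stained for 1 hour at 4 °C with 10% biotinylated, detergent-solubilized Sf9 membrane reagent and enriched with streptavidin microbeads before FACS. Low and high (top ~1%) gates were set on anti-HA fluorescence for expression and streptavidin fluorescence for reagent binding, and each polyreactivity label reflects the gate of origin.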

## QVQLVESGGGLVQAGGSLRLSCAASGSTLRRNAMGWYRQAPGKERELVAAISGTGGSTYYADSVKGRFTISRDNAKNTVYLQMYSLKPEDTAVYYCAATGWYYDYDYWGQGTQVTVSS
  polyreactivity (PSR sort gate): low polyreactivity

## QVQLVESGGGLVQAGGSLRLSCAASGSTLGRYSMGWYRQAPGKERELVAAISWRGGSTYYADSVKGRFTISRDNAKNTVYLQMNSLKPEDTPVYYCAATYRFSEYYYWGQGTQVTVSS
  polyreactivity (PSR sort gate): high polyreactivity

## QVQLVESGGGLVQAGGRLRLSCAASGRTFYGYAMGWYRQAPGKERELVASISRDGSTNYADSVNGRFTISRDNAKNTVYLQMHSLKPEDTAVYYCAADIWYYRYPIYYYSYDYWGPGTQVTVSS
  polyreactivity (PSR sort gate): low polyreactivity

## QVQLVESGGGLVQAGGSLRLSCAASGRIFKYYAMGWYRQAPGKERELVAAITSAGNTKYADSVKGRFTISRDNAKNTVYLQMNSLKPEDTAVYYCARGRYYVIGSYDYWGQGTQVTVSS
  polyreactivity (PSR sort gate): high polyreactivity

## QVQLVESGGGLVQAGGSLRLSCAASGRTFGKYAMGWYRQAPGKEREFVAAISRSGGNTYYADSVKGRFTISRDNAKNTVYLQMNSLKPEDTAVYYCAAKGFFYYWGQGTQVTVSS
  polyreactivity (PSR sort gate): high polyreactivity

## QVQLVESGGGLVQAGASLRISCAASGNILPVYAMGWYRQAPGKEREFVAAITSRGGSTYYADSVKGRFTISRDNAKNTVYLQMNSLKPEDTAVYYCAAKYLRAYGYWGQGTQVTVSS
  polyreactivity (PSR sort gate): high polyreactivity

## QVQLVESGGGLVQAGGSLRLSCAASGSIFYYYAMGWDRQAPGKERELVAGITGSGGRTYYADSVKGRFTISRDNAKNTVYLQMNSLKPEDTAVYYCAATRRDSTGSLYYYWGQGTQVTVSS
  polyreactivity (PSR sort gate): high polyreactivity

## QVQLVESGGGLVQAGGSLRLSCAASGSTFSNNSIGWYRQAPWKETELVAAISWYGDSTYADSVKGRFTISRDNAKNTVYLQMNSLKAEATAVYYCAKDTIITPGRRKSPRDRHGYWGQGTQVTVSS
  polyreactivity (PSR sort gate): low polyreactivity

## QVQLVESGGGLVQAGGSLRLSCAASGSTFSAYAMGGYRQAPGKERELVAVITSGASTYYADSVKGRFTISRDNAKNTVYLQMNSLKPEDTAVYYCAAYGYSYRGWRMDYWGQGTQVTVSS
  polyreactivity (PSR sort gate): high polyreactivity

## QVQLVESGGGLVQAGGSLRLSCAASGSILGYYAMGWYRQAPGKERELVAAISWSGGRTYYADSVKGRFTISRDNAKNTVYLQMNSLKPEDTAVYYCNARWRSGPRAYDYWGQGTQVTVSS
  polyreactivity (PSR sort gate): high polyreactivity

## QVQLVESGAGLVQAGGSLRLTCAASGFIFRDYAMGGYRQAPGKDRELVAAISSGDSTNYADSVKGRFTISRDNAKNTVYLLMNSLKPEDTAVYYCAADQVQYTGYTEYDWGQGTQVTVSS
  polyreactivity (PSR sort gate): low polyreactivity

## QVQLVESGGGLVQAGGSLRLSCAASGLTFGGNAMGWYSQAPGKERELVAALSWSDDTTDYADSVKGRFTISRDNAKYTVYLQMNSLKPEDTAVYYCAARLPFEHVDYWGQGTQVTVSS
  polyreactivity (PSR sort gate): low polyreactivity

## QVQLVESGGGLVQEGGSLRLSCAASGFIFRGNGMGWYRQAPGKERELVAAIDSTDSKNYADSVKGRFTISRDNAKNTVYLQMNSLKPEDTAVYYCAAGVSWYGPYDYLWFYAFDYWGQGTQVTVSS
  polyreactivity (PSR sort gate): low polyreactivity

## QVQLVESGGGLVQAGGSLRLSCAASGRTFLRNAMGWYRPAPGKERELVAAITSSGGRTYYADSVKGRFTISRDNAKNTVYLQMNSLKPEDTAVYYCATDTGWPGRDYWGQGPQVTVSS
  polyreactivity (PSR sort gate): high polyreactivity

## QVQLLESGGGLVQAGGSLRLSCAASGSTIVSYDMGWYRQAPGKERELVAAITYDGDSTYYADSVKGRFTISRDNAKNTVYLQMNSLKPEDTAVYYCAAEPGEDLKFRGGFEYWGQGTQVTVSS
  polyreactivity (PSR sort gate): low polyreactivity

## QVQLVESGGGLVQAGGSLRFSCAASGRTFYPYAMGWYRQAPGKERELVAAINGGGRTYYADSVKGRFTISRDNAKNTVYLQMNSLKPEDTAVYYCATRYPAWRYDYNYWGQGTQVSVSS
  polyreactivity (PSR sort gate): high polyreactivity

## QVQHVESGGGLVQAGGSLRLSCAASGSIFASNAMGWYRQPPGKEREFVAAISSSGTRTYSADSVKGRFTISRDNAKNTVYLQLNSLKQEDTAVYYCATRRGYDSVYYFYTLWSYYWGQGTQVTVSS
  polyreactivity (PSR sort gate): low polyreactivity

## QVQLVESGGGLVQAGGSLRLSCAASGRTFYYYAMGWYRQAPGKEREFVASITWRGGRTYYADSVKGRFTISRDNAKNTVYLQMNSLKPEDTAVYYCAAESYHPEYYYWGQGTQVTVSS
  polyreactivity (PSR sort gate): high polyreactivity

## QVQLVESGGGLVQAGGSLRLSCAASGFIIRRYAMGRYRQAPGKEREMVASIDRSGASTYYADSVKGRLTISRDNAKYTVYLQMNSLKPEDTAVYYCNKAFAWTGWYSVQGDYWGQGTQVTVSS
  polyreactivity (PSR sort gate): high polyreactivity

## QVQLVESGGGLVQAGGSLRLSCAASGSIFQRYTMGWYRQAPGKERELVARISGRGGSTYYADSVKGRFTISRDNAKNTVYLQMNSMKPEDTAVYYCAADTGRYLDSNYWGQGTQVTVSS
  polyreactivity (PSR sort gate): high polyreactivity

## QVQLVESGGGLVQAGGRLRLSCAASGSIFRRYAMGWYRQAPGKERELVAAISSTPITYYADSVKGRFTISRDNAKNTVYLQMNSLKPEDTAVYYCAAELLLSYYYGLEDDYWGQGTQVTVSS
  polyreactivity (PSR sort gate): low polyreactivity

## QVQLVESGGGLVQAGGSLRLSCAASGNIFAYYAMGWYRQAPGKEREFVAAIRSSGVSTYYADSVKGRFTISRDNAKNTVYLQMNSLKPEDTAVYYCAADSITGGWLIVSPPFNYTYDYWGQGTQVTVSS
  polyreactivity (PSR sort gate): low polyreactivity

## QVQLVESGGGLVQAGGSLRLSCAASGSTFGTYVMGWYRQAPGKERELVAAISKRGGRTYYADSVKGRFTISRDNAKNTVYLQMNSLKPEDTAVYYCNAVYLYSGSSARYYWGQGTQVTVSS
  polyreactivity (PSR sort gate): high polyreactivity

## QVQLVESGGGLVQAGGSLRLSCAASGFTFGSYAMGWSRQAPGKERELVAVITRSGRTNYADSVKGRFTISRDNAKNTVYLQMNSLKPEDTAVYYCNADDVDDEVSPDLTEMDYWGQGTQVTVSS
  polyreactivity (PSR sort gate): low polyreactivity

## QVQLVESGGGLVQAGGSLRLSCAASGSTFLNYAMGWYRQAPGKERELVAAISGRGGRTYYADSVKGRFTISRDNAKNTVYLQMNSLKPEDTAFYYCAARIWVSYTSYDYWGQGTQVTVSS
  polyreactivity (PSR sort gate): high polyreactivity

## QVHLVESAAGLVQAGGSLRLSCAASGSTFIGNAMVWYRQAPGKERELVAAITRSGGTTYYADSVKGRFTISRDNAKNTVYLQMNSLKPEDTAVYYCNKTHFFGYDSWGQGTQVTVSS
  polyreactivity (PSR sort gate): low polyreactivity

## QVQLVESGGGLVQAGGRHRISCAASGLICVTYAMGWYRQAPGKERELVAVITASGDGTYYADSVKGRFTMSRDNAKNTVYLQMNSLKPEDSAVYSCAAGNMSQVGAIGKNTSQSDYWGQGTHVTVSS
  polyreactivity (PSR sort gate): low polyreactivity

## QVQLVESGGGLVQAGGSLRLSCAASGSTFSDYTMGWYRQAPGKERELVAAITTIGGSTYYADSVKGRFTISRDNAKNTVYLQMNSLKPEDTAVYYCAASYYYPFEYYYWGQGTQVTVSS
  polyreactivity (PSR sort gate): low polyreactivity

## QVQLVESGGGLVQAGGSLRLSCAASGFTFSCYAMGWYRQAPGKEREFVAAISRRGAITSYADSVKGRFTISRDNAKNTVYLQMNSLKPEDTAVYYCNARYPHYYYSAYNYWGQGSQVTVSS
  polyreactivity (PSR sort gate): high polyreactivity

## QVQLVESGGGLVQAGGSLRLSCAASGFTFTVYAMGWYRQAPGKERELVAAIRWSGGSTSYADSVKGRFTISRDNAKNTVYLQMNSLKPEDTAVYYCNARISDAHYQSNYFLVLYDYWGKGTQVTVSS
  polyreactivity (PSR sort gate): low polyreactivity

## QVQLVESGGGLVQAGGSLRLSCAASGSTFRQYAMGWYRQAPGKERELVAAIRGRDGSTYYADSVKGGFTISRDNAKYTVYLQMNSLKPEDSAVYYCNVVARGVSPGYDYWGQGTQVTVSS
  polyreactivity (PSR sort gate): high polyreactivity

## QLQLVESGGGLVQAGGSLSLSCAASGSIFNSKRMGWYRPAPGKERELVAAITGGGSTNYADSVKGRFTISRDNAKNTVYLQMNSLKPEDTAVYYCAADYPPTFYYWYEEYEYWGQGTQVTVSS
  polyreactivity (PSR sort gate): low polyreactivity

## QVQLVESGGGLVQGGGSLRLSCAASGSIFSDYAMGWYRQAPGKEREFVAPITWSGTSTYYADSVKGRFTISRYNAKNTVYLQMNSLKPEDTAGDYSAADLLFWLGLVPGTIYDEFDYWGQGTQVTVAS
  polyreactivity (PSR sort gate): low polyreactivity

## QVQLVESGGGLVQAGGSLRLSCAASGRTYGEYGMGWYRQAPGKERELVAAISSTGSTYYADSVKGRFTISRDNAKNTVYLQMNSLKPEDTAVYYCAAEIVRYGDEYDYWGQGTQVTVSS
  polyreactivity (PSR sort gate): low polyreactivity

## QVQLVESGGGLVQAGGSLRLSCAASGRIFFNYAMGWYIQAPGKERELVARITGSGGRTYYADSVKGRFTISRDNAKNTVYLQMNSLKPEDTAVYYCNKVPGYKYDSWGQGTQVTVSS
  polyreactivity (PSR sort gate): high polyreactivity

## QVQLVESGGGLVQAGGSLRLSCAASGRIFYAYAMGWYRQAPGKERELVAAISSGGSTKYADSVKGRFTISRDNAKNTVYLQMNSLKPEDTAVYYCNADATAQSFGTLFDYWGQGTQVTVSS
  polyreactivity (PSR sort gate): low polyreactivity

## QVQLVESGGGLVQAGGSLRLSCAASGFIFAINAMGWYRQAPGKERELVAAITSSGGSTYYADSVKGRFTISRDNAKNTVYLQMNSLKPEDTAVYYCAAPQGNPSQDWEDYWGQGTQVTVSS
  polyreactivity (PSR sort gate): low polyreactivity

## QVQLVESGGGLVQAGGSLRLSCAASGSIFPHNTMGWYRQAPGNERELVAAISRSGGSTYYADSVKGRFTISRDNAKNTVYLQMNSLKPEDTAVYYCARDSYDVGHQVVSDERLYDYWGQGTQVTVSS
  polyreactivity (PSR sort gate): low polyreactivity

## QVQLVESGGGLVQAGGSLSLSCAASGLTFQEYAMRWYRQAPGKERELVAAISWSGGSTYYADSVKGRFTISRDNAKNTVYLQMNSLKPEDTAVYYCAAEAYEEYITGWYAYDYWGQGTQVTVSS
  polyreactivity (PSR sort gate): high polyreactivity

## QVQLVESGGGLVQAGGSLRLSCAPSGRIVYYYAMGWYRHAPGKERELVASITFSGGRTFYADSVKGRFTITRDYAKNTVYLQMNSVTPEDTAVYYGAAVRCGRRSGGLVAEYDYWGQGTQVSVSS
  polyreactivity (PSR sort gate): high polyreactivity

## QVQLVESGGGLVQAGGSLRLSCAASGSTFVLNAMGWYRQAPGKERELVAAISSGGRTYYADSVKGRFTISRDNAKNTVYLQMNSLKPEDTAVYYCAAKPYRGGHRTLFGYWGQGTQVTVSS
  polyreactivity (PSR sort gate): high polyreactivity

## QVQLVESGGGLVQAGGSLRLSCAASGSIFAYYAMGWYREAPGKERELVADITSSGGITYSADSVKGRFTISRDNAKNTVYLLMNSLKPEDTAGYYCNADSWAIGGGSYPYDYWGQGTKVTVSS
  polyreactivity (PSR sort gate): low polyreactivity

## QVQHVESGGGLDQAGGSLRLSCAASGSIFNGYAMGWYRQAPGKERELVADIRSGGSTYYADSVKGRFTISRDNAKNTVYLQMNSLKPEDTAVYYCAGDTITDGYDYWGQGTQVTVSS
  polyreactivity (PSR sort gate): low polyreactivity

— the nanobody polyreactivity screen of Harvey et al. (2022)
